Laboratory results taken from the supplement of paper PMC10899765.

How the values were obtained:
Conditions in all cases: 20 nM; 72 h
MCF10A [1] = experiment: percent viability (nuclei count relative to siNT); higher = more viable cells
Method: (§1)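 After 72 h, cells were fixed and stained with Hoechst and anti-fibrillarin, and nucleoli per nucleus were counted with CellProfiler. Values are plate-adjusted percent effect for the one-nucleolus and 5+ nucleoli phenotypes, normalised to siNT (0%) and to the positive controls siNOL11 or siKIF11 (100%), as the mean of biological triplicates. Percent viability is the nuclei count relative to siNT.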

MCF10A [2] = experiment: one-nucleolus phenotype percent effect (relative to siNT 0% and siNOL11 100%); higher = more cells with one nucleolus (ribosome biogenesis inhibition)
Method: as §1

MCF10A [3] = experiment: 5+ nucleoli phenotype percent effect (relative to siNT 0% and siKIF11 100%); higher = more cells with five or more nucleoli
Method: as §1

| Sequence | percent viability (MCF10A [1]) [%] | one-nucleolus phenotype percent effect (MCF10A [2]) [%] | 5+ nucleoli phenotype percent effect (MCF10A [3]) [%] |
| --- | --- | --- | --- |
| CAAAAAUCUCAAUUACUUUUGC [hsa-miR-548c-3p] | 84.4 | -9.26 | 42.3 |
| ACCUUCCUCUCCAUGGGUCUUU [hsa-miR-3667-3p] | 32 | 18.2 | -21.3 |
| UCUGAGUUCCUGGAGCCUGGUCU [hsa-miR-4682] | 104 | -20 | 18.8 |
| CAGUGGCCAGAGCCCUGCAGUG [hsa-miR-3677-5p] | 28.6 | 16.6 | -20.3 |
| UCACAAAUCUAUAAUAUGCAGG [hsa-miR-4719] | 149 | -19.7 | 40.1 |
| CAAAACCGCAGUAACUUUUGU [hsa-miR-548at-3p] | 33 | 37.5 | -23.4 |
| UUGGGGGUGAGGUUGGUGUCUGG [hsa-miR-6751-5p] | 7.37 | 13.4 | -13.1 |
| GCGGAGAGAGAAUGGGGAGC [hsa-miR-5739] | 110 | -16.4 | 53.5 |
| UUUAAGAAAACACCAUGGAGAU [hsa-miR-3658] | 148 | -25.1 | 18.1 |
| UUCUGGAUAUGAAGACAAUCAA [hsa-miR-4782-5p] | 16.3 | 44.9 | -38.6 |
| AGGGCCGAAGGGUGGAAGCUGC [hsa-miR-6877-5p] | 41.7 | 10.5 | -6.96 |
| AGGCUCUAACUGGCUUUCCCUGCA [hsa-miR-6822-3p] | 37.9 | 32.4 | -24.9 |
| UAAAAACUGCAAUUACUUUUA [hsa-miR-548aj-3p] | 115 | -18.5 | 35.3 |
| AUGGGGACAGGGAUCAGCAUGGC [hsa-miR-6810-5p] | 25.9 | 45.5 | -23.9 |
| UACCCAGUCUCCGGUGCAGCC [hsa-miR-3130-5p] | 27.4 | 44 | -32.6 |
| UGUAGGCAUGAGGCAGGGCCCAGG [hsa-miR-6806-5p] | 32.5 | -16.3 | 44.5 |
| GUGGGGCCAGGCGGUGG [hsa-miR-1227-5p] | 78.5 | -31 | 55.1 |
| CCUCGGUACUGGAAAGGGGUA [hsa-miR-8088] | 108 | -9.43 | 15.8 |
| UGAAACUGGAGCGCCUGGAGGA [hsa-miR-4738-3p] | 28.6 | 26.9 | -20.8 |
| AGAGUUAACUCAAAAUGGACUA [hsa-miR-4424] | 51.7 | -9.95 | 6.94 |
| UGUGGACAGUGAGGUAGAGGGAGU [hsa-miR-3138] | 47.9 | -2.72 | 2.7 |
| AAAAGCUGGGUUGAGAGGGU [hsa-miR-320c] | 64.7 | 1.49 | -0.437 |
| AUCCUUGCUAUCUGGGUGCUA [hsa-miR-502-5p] | 40.4 | 8.98 | -11.6 |
| UAGUGGUCCUAAACAUUUCACA [hsa-miR-203b-5p] | 15.6 | 58.6 | -42.9 |
